Laboratory results taken from publication PMC10708888, “Evolution towards simplicity in bacterial small heat shock protein system” (eLife, 2023).
Numbering of substitutions follows the chain as printed. Numbers in names are those of the source.

Columns and labels:
[1] = biological target: heat-aggregated E. coli proteins; test: biolayer interferometry (BLI); settings: value read at the end of the association phase (~60 min), read off a plot
[2] = biological target: the molecule itself; test: dynamic light scattering; 10 µM sHsp in buffer F (50 mM Tris pH 7.5, 150 mM KCl, 20 mM MgCl2, 2.5 mM DTT); oligomer size measured at 25 °C and 44 °C in repeated cycles
[3] = biological target: T1, His-tagged luciferase, heat-aggregated on the BLI sensor (firefly, UniProt P08659 1-550 = luciferase); test: BLI; ForteBio BLItz; His-tagged luciferase aggregated on the sensor; 5 µM sHsp (preincubated 10 min at 44 °C) bound for 10 min, then buffer F or Hsp70 system (0.7 µM DnaK, 0.28 µM DnaJ, 0.21 µM GrpE, 5 mM ATP) for 1 hr; room temperature; settings: both partners purified
T1 construct: firefly luciferase, His-tagged construct of Obuchowski et al., 2019; anchoring layer attached to NTA sensors in 4.5 M urea, then aggregate formed at 44 °C; also called aggregated luciferase; luciferase aggregates; source: purified as described previously (Obuchowski et al., 2019)
T1 sequence (P08659 whole entry): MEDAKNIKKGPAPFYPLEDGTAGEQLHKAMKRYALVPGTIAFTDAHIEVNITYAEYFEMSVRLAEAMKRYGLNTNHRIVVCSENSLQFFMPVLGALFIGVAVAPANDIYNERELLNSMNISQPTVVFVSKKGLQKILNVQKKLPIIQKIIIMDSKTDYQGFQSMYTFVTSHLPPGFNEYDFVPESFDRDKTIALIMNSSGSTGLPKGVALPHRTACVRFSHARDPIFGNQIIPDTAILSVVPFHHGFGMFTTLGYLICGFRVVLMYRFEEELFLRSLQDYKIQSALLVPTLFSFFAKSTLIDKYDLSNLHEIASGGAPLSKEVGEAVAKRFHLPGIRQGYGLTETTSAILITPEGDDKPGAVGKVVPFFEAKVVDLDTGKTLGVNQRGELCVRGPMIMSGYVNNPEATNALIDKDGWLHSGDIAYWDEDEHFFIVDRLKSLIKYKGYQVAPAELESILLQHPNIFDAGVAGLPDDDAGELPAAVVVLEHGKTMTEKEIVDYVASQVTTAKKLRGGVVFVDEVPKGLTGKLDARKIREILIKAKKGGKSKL

Molecule: IbpA from Escherichia coli (from UniProt P0C054) Q66H; G109D
- response ([1]; parent: est. 2.7): 1.5 nm

Molecule: IbpA from Erwinia amylovora (from UniProt A0ABX7MII2) H67Q; D110G
- response ([1]; parent: est. 0.91): 1.4 nm

B1: IbpA_(E.coli) Q66H G109D (natural protein, E. coli, UniProt P0C054 1-137, looked up)
chain: MRNFDLSPLYRSAIGFDRLFNHLENNQSQSNGGYPPYNVELVDENHYRIAIAVAGFAESELEITAHDNLLVVKGAHADEQKERTYLYQGIAERNFERKFQLAENIHVRDANLVNGLLYIDLERVIPEAKKPRRIEIN
notes: IbpA, small heat shock protein of E. coli, with AncA1-like substitutions; source: purified
- binding result [2]: binds
- binding result [3]: binds

B2: IbpA from Escherichia coli (natural protein, E. coli, UniProt P0C054 1-137, looked up)
chain: B1 chain with H66Q, D109G
notes: IbpA, small heat shock protein of E. coli; also called IbpA_(E. coli); IbpAEc; source: purified as described previously (Ratajczak et al., 2009)
- binding result [3]: binds
